Measured values from IntAct's records for PubMed 27857056.

B1: UDP-glucuronosyltransferase 1A9 (Homo sapiens), O60656-1 (parent)
chain: MACTGWTSPLPLCVCLLLTCGFAEAGKLLVVPMDGSHWFTMRSVVEKLILRGHEVVVVMPEVSWQLGRSLNCTVKTYSTSYTLEDLDREFKAFAHAQWKAQVRSIYSLLMGSYNDIFDLFFSNCRSLFKDKKLVEYLKESSFDAVFLDPFDNCGLIVAKYFSLPSVVFARGILCHYLEEGAQCPAPLSYVPRILLGFSDAMTFKERVRNHIMHLEEHLLCHRFFKNALEIASEILQTPVTEYDLYSHTSIWLLRTDFVLDYPKPVMPNMIFIGGINCHQGKPLPMEFEAYINASGEHGIVVFSLGSMVSEIPEKKAMAIADALGKIPQTVLWRYTGTRPSNLANNTILVKWLPQNDLLGHPMTRAFITHAGSHGVYESICNGVPMVMMPLFGDQMDNAKRMETKGAGVTLNVLEMTSEDLENALKAVINDKSYKENIMRLSSLHKDRPVEPLDLAVFWVEFVMRHKGAPHLRPAAHDLTWYQYHSLDVIGFLLAVVLTVAFITFKCCAYGYRKCLGKKGRVKKAHKSKTH
partner: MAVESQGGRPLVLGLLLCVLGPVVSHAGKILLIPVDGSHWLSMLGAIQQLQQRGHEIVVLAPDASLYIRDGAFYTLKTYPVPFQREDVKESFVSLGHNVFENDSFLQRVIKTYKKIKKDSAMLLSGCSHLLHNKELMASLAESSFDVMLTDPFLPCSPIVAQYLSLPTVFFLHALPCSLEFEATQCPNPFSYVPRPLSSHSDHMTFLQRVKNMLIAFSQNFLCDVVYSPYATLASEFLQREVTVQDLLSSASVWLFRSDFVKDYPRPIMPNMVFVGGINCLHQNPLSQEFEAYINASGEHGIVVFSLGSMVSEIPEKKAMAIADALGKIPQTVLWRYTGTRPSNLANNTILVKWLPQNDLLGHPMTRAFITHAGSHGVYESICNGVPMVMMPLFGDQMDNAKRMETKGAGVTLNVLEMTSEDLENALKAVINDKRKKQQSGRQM
B2: UDP-glucuronosyltransferase 2B7 (Homo sapiens), P16662 (parent)
chain: MSVKWTSVILLIQLSFCFSSGNCGKVLVWAAEYSHWMNIKTILDELIQRGHEVTVLASSASILFDPNNSSALKIEIYPTSLTKTELENFIMQQIKRWSDLPKDTFWLYFSQVQEIMSIFGDITRKFCKDVVSNKKFMKKVQESRFDVIFADAIFPCSELLAELFNIPFVYSLSFSPGYTFEKHSGGFIFPPSYVPVVMSELTDQMTFMERVKNMIYVLYFDFWFEIFDMKKWDQFYSEVLGRPTTLSETMGKADVWLIRNSWNFQFPYPLLPNVDFVGGLHCKPAKPLPKEMEDFVQSSGENGVVVFSLGSMVSNMTEERANVIASALAQIPQKVLWRFDGNKPDTLGLNTRLYKWIPQNDLLGHPKTRAFITHGGANGIYEAIYHGIPMVGIPLFADQPDNIAHMKARGAAVRVDFNTMSSTDLLNALKRVINDPSYKENVMKLSRIQHDQPVKPLDRAVFWIEFVMRHKGAKHLRVAAHDLTWFQYHSLDVIGFLLVCVATVIFIVTKCCLFCFWKFARKAKKGKND
partner: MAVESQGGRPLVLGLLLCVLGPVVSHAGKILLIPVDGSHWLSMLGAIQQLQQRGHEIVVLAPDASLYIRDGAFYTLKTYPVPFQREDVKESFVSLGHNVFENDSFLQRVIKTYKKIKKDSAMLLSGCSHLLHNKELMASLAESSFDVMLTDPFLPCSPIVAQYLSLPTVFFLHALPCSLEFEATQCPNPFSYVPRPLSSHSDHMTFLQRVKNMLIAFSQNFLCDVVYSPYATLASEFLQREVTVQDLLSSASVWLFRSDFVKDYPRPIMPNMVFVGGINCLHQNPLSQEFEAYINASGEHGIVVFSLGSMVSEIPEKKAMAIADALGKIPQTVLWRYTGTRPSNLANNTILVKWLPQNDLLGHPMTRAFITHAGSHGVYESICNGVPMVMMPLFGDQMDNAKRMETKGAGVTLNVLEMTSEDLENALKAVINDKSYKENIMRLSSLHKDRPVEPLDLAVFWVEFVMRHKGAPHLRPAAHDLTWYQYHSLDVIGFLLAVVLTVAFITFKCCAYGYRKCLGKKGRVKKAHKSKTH
B3: UDP-glucuronosyltransferase 1A9 (Homo sapiens), O60656-1 (parent)
chain: B1 chain
partner: B2 chain

Variants of: B1
Settings: with UGT1A1, P22309-2

| Variant | effect of a mutation on the interaction |
| --- | --- |
| MAYTGWTSPLPLCVCLLLTCGFAEAGKLLVVPMDGSHWFTMRSVVEKLILRGHEVVVVMPEVSWQLGRSLNCTVKTYSTSYTLEDLDREFKAFAHAQWKAQVRSIYSLLMGSYNDIFDLFFSNCRSLFKDKKLVEYLKESSFDAVFLDPFDNCGLIVAKYFSLPSVVFARGILCHYLEEGAQCPAPLSYVPRILLGFSDAMTFKERVRNHIMHLEEHLLCHRFFKNALEIASEILQTPVTEYDLYSHTSIWLLRTDFVLDYPKPVMPNMIFIGGINCHQGKPLPMEFEAYINASGEHGIVVFSLGSMVSEIPEKKAMAIADALGKIPQTVLWRYTGTRPSNLANNTILVKWLPQNDLLGHPMTRAFITHAGSHGVYESICNGVPMVMMPLFGDQMDNAKRMETKGAGVTLNVLEMTSEDLENALKAVINDKSYKENIMRLSSLHKDRPVEPLDLAVFWVEFVMRHKGAPHLRPAAHDLTWYQYHSLDVIGFLLAVVLTVAFITFKCCAYGYRKCLGKKGRVKKAHKSKTH [C3Y] | with no effect |

Variants of: B2
Settings: with UGT1A1, P22309-1

| Variant | effect of a mutation on the interaction |
| --- | --- |
| MSVKWTSVILLIQLSFCFSSGNCGKVLVWAAEYSHWMNIKTILDELIQRGHEVTVLASSASILFDPNNSSALKIEIYPTSLTKTELENFIMQQIKRWSDLPKDTFWLYFSQVQEIMSIFGDITRKFCKDVVSNKKFMKKVQESRFDVIFADAIFPCSELLAELFNIPFVYSLSFSPGYTFEKHSGGFIFPPSYVPVVMSELTDQMTFMERVKNMIYVLYFDFWFEIFDMKKWDQFYSEVLGRPTTLSETMGKADVWLIRNSWNFQFPYPLLPNVDFVGGLHCKPAKPLPKEMEDFVQSSGENGVVVFSLGSMVSNMTEERANVIASALAQIPQKVLWRFDGNKPDTLGLNTRLYKWIPQNDLLGHPKTRAFITHGGANGIYEAIYHGIPMVGIPLFANQPDNIAHMKARGAAVRVDFNTMSSTDLLNALKRVINDPSYKENVMKLSRIQHDQPVKPLDRAVFWIEFVMRHKGAKHLRVAAHDLTWFQYHSLDVIGFLLVCVATVIFIVTKCCLFCFWKFARKAKKGKND [D398N] | with no effect |
| MSVKWTSVILLIQLSFCFSSGNCGKVLVWAAEYSHWMNIKTILDELIQRGHEVTVLASSASILFDPNNSSSLKIEIYPTSLTKTELENFIMQQIKRWSDLPKDTFWLYFSQVQEIMSIFGDITRKFCKDVVSNKKFMKKVQESRFDVIFADAIFPCSELLAELFNIPFVYSLSFSPGYTFEKHSGGFIFPPSYVPVVMSELTDQMTFMERVKNMIYVLYFDFWFEIFDMKKWDQFYSEVLGRPTTLSETMGKADVWLIRNSWNFQFPYPLLPNVDFVGGLHCKPAKPLPKEMEDFVQSSGENGVVVFSLGSMVSNMTEERANVIASALAQIPQKVLWRFDGNKPDTLGLNTRLYKWIPQNDLLGHPKTRAFITHGGANGIYEAIYHGIPMVGIPLFADQPDNIAHMKARGAAVRVDFNTMSSTDLLNALKRVINDPSYKENVMKLSRIQHDQPVKPLDRAVFWIEFVMRHKGAKHLRVAAHDLTWFQYHSLDVIGFLLVCVATVIFIVTKCCLFCFWKFARKAKKGKND [A71S] | with no effect |

Variants of: B3
Settings: with ud2b7_human UGT2B7, P16662

| Variant | effect of a mutation on the interaction |
| --- | --- |
| MACTGWTSPLPLCVCLLLTCGFAEAGKLLVVPMDGSHWFTMRSVVEKLILRGHEVVVVMPEVSWQLGRSLNCTVKTYSTSYTLEDLDREFKAFAHAQWKAQVRSIYSLLMGSYNDIFDLFFSNCRSLFKDKKLVEYLKESSFDAVFLDPFDNCGLIVAKYFSLPSVVFARGILCHYLEEGAQCPAPLSYVPRILLGFSDAMTFKERVRNHIMHLEEHLLCHRFFKNALEIASEILQTPVTEYDLYSHTSIWLLRTNFVLDYPKPVMPNMIFIGGINCHQGKPLPMEFEAYINASGEHGIVVFSLGSMVSEIPEKKAMAIADALGKIPQTVLWRYTGTRPSNLANNTILVKWLPQNDLLGHPMTRAFITHAGSHGVYESICNGVPMVMMPLFGDQMDNAKRMETKGAGVTLNVLEMTSEDLENALKAVINDKSYKENIMRLSSLHKDRPVEPLDLAVFWVEFVMRHKGAPHLRPAAHDLTWYQYHSLDVIGFLLAVVLTVAFITFKCCAYGYRKCLGKKGRVKKAHKSKTH [D256N] | with no effect |
| MACTGWTSPLPLCVCLLLTCGFAEAGKLLVVPTDGSHWFTMRSVVEKLILRGHEVVVVMPEVSWQLGRSLNCTVKTYSTSYTLEDLDREFKAFAHAQWKAQVRSIYSLLMGSYNDIFDLFFSNCRSLFKDKKLVEYLKESSFDAVFLDPFDNCGLIVAKYFSLPSVVFARGILCHYLEEGAQCPAPLSYVPRILLGFSDAMTFKERVRNHIMHLEEHLLCHRFFKNALEIASEILQTPVTEYDLYSHTSIWLLRTDFVLDYPKPVMPNMIFIGGINCHQGKPLPMEFEAYINASGEHGIVVFSLGSMVSEIPEKKAMAIADALGKIPQTVLWRYTGTRPSNLANNTILVKWLPQNDLLGHPMTRAFITHAGSHGVYESICNGVPMVMMPLFGDQMDNAKRMETKGAGVTLNVLEMTSEDLENALKAVINDKSYKENIMRLSSLHKDRPVEPLDLAVFWVEFVMRHKGAPHLRPAAHDLTWYQYHSLDVIGFLLAVVLTVAFITFKCCAYGYRKCLGKKGRVKKAHKSKTH [M33T] | with no effect |
| MAYTGWTSPLPLCVCLLLTCGFAEAGKLLVVPMDGSHWFTMRSVVEKLILRGHEVVVVMPEVSWQLGRSLNCTVKTYSTSYTLEDLDREFKAFAHAQWKAQVRSIYSLLMGSYNDIFDLFFSNCRSLFKDKKLVEYLKESSFDAVFLDPFDNCGLIVAKYFSLPSVVFARGILCHYLEEGAQCPAPLSYVPRILLGFSDAMTFKERVRNHIMHLEEHLLCHRFFKNALEIASEILQTPVTEYDLYSHTSIWLLRTDFVLDYPKPVMPNMIFIGGINCHQGKPLPMEFEAYINASGEHGIVVFSLGSMVSEIPEKKAMAIADALGKIPQTVLWRYTGTRPSNLANNTILVKWLPQNDLLGHPMTRAFITHAGSHGVYESICNGVPMVMMPLFGDQMDNAKRMETKGAGVTLNVLEMTSEDLENALKAVINDKSYKENIMRLSSLHKDRPVEPLDLAVFWVEFVMRHKGAPHLRPAAHDLTWYQYHSLDVIGFLLAVVLTVAFITFKCCAYGYRKCLGKKGRVKKAHKSKTH [C3Y] | with no effect |
